Experiments:
eIF4A2 [1] = target: T1, eIF4A2 (UniProt Q14240 1-407); experiment: EMSA; AMP-PNP; bound even under high molar excess of (CAA)6CA; 20 mM Hepes/KOH pH 7.5, 100 (mM) KCl, 1 mM MgCl2, 1 mM AMP-PNP, 1 mM TCEP, 0.1% DMSO, +/-50 uM silvestrol (10 uM in Fig 4a legend), 60 min, 25 C; numeric Kd of; conditions: protein: recombinant; tags: SUMO tag cleaved; label: Dy780; single strand
eIF4A2 [2] = target: T1, eIF4A2; experiment: competition; 20-fold excess; readily displaces pre-bound FAM-(CAA)6CA; 20 mM Hepes/KOH pH 7.5, 100 (mM) KCl, 1 mM MgCl2, 1 mM AMP-PNP, 1 mM TCEP, 0.1% DMSO, +/-50 uM silvestrol (10 uM in Fig 4a legend), 60 min, 25 C; numeric Kd of; conditions: protein: recombinant; tags: SUMO tag cleaved; label: none; single strand
eIF4A2 [3] = target: T1, eIF4A2; experiment: fluorescence anisotropy; 1 mM AMP-PNP, 1 mM Mg2+; 20 mM Hepes/KOH pH 7.5, 100 (mM) KCl, 1 mM MgCl2, 1 mM AMP-PNP, 1 mM TCEP, 0.1% DMSO, +/-50 uM silvestrol (10 uM in Fig 4a legend), 60 min, 25 C; numeric Kd of; conditions: protein: recombinant; tags: SUMO tag cleaved; label: 5' FAM; single strand, unstructured
eIF4A1 = eIF4A1 (UniProt P60842 1-406); experiment: fluorescence anisotropy; AMP-PNP; 20 mM Hepes/KOH pH 7.5, 100 (mM) KCl, 1 mM MgCl2, 1 mM AMP-PNP, 1 mM TCEP, 0.1% DMSO, +/-50 uM silvestrol (10 uM in Fig 4a legend), 60 min, 25 C; numeric Kd of; conditions: protein: recombinant; tags: SUMO tag cleaved; label: FAM; blunt
Sequence of eIF4A1 (P60842 whole entry): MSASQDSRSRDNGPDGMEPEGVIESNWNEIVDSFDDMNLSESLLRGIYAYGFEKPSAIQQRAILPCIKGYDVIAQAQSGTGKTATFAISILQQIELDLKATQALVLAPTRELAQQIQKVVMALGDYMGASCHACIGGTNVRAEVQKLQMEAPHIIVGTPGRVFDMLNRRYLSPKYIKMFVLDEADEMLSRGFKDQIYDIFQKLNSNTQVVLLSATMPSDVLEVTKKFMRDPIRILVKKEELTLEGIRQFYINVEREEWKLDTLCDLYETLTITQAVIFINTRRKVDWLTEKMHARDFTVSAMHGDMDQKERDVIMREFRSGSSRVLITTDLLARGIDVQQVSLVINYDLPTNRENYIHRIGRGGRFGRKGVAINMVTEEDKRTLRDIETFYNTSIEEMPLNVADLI

eIF4A2 [4] = target: T1, eIF4A2; experiment: as above; conditions: protein: recombinant; tags: SUMO tag cleaved; label: FAM; blunt

T1 sequence (Q14240 whole entry): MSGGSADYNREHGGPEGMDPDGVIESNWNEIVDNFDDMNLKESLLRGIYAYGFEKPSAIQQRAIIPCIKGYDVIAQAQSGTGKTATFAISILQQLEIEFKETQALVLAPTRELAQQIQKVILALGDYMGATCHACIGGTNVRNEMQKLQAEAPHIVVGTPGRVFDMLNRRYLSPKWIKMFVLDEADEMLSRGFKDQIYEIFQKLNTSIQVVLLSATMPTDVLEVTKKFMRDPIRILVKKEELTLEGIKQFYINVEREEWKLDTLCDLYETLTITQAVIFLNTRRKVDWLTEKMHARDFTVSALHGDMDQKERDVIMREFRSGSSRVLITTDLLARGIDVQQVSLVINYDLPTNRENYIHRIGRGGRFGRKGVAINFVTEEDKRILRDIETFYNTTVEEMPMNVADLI

AGAGAGAGAGAGAGAGAGAG (ssRNA) [Dy780-(AG)10 ssRNA]
binding result (eIF4A2 [1]): binds

AGAGAGAGAGAGAGAGAGAG (ssRNA) [(AG)10 unlabelled competitor]
binding result (eIF4A2 [2]): binds

AGAGAGAGAGAGAGAGAGAG (ssRNA) [(AG)10 ssRNA]
binding result (eIF4A2 [3]): binds

B1: (AG)10:(CU)10 dsRNA (dsRNA)
RNA 1: AGAGAGAGAGAGAGAGAGAG
RNA 2: CUCUCUCUCUCUCUCUCUCU
binding result (eIF4A1): no binding
binding result (eIF4A2 [4]): no binding

— PMC6886185, “eIF4A2 drives repression of translation at initiation by Ccr4-Not through purine-rich motifs in the 5′UTR”
